± gives the uncertainty stated by the source.

The data set is described as follows: amyloid nucleation score (Sup35N fusion, yeast selection) (log enrichment); library NNK3; higher = more nucleation; inactive = no reads after selection. In short, it runs like this: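 Plasmid inserts were Illumina-sequenced at input and output from psi-negative yeast expressing Sup35N fused to peptides of 20 random codons. The yeast were induced with 100 μM copper sulfate for 24 hours and grown 7 days at 30°C on medium lacking adenine and uracil, and sequences with under 100 input reads were excluded. Nucleation score is the DiMSum log enrichment of output over input reads, centred on the mode score of non-aggregating sequences.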
SASGGFVLFLWLVCEGTFAG showed an amyloid nucleation score of 0.069 ± 0.38.
The figure for SATFRSSVTLSRHPVNNLTP is 1.35 ± 0.082.
The entry for SAVLPLALVGHDTPNRAQLN is “inactive”; for SAWQPWMKDRSS it is “inactive”; for SAYWCIPIPNITIWFNFFLL it is 1.47 ± 0.11.
The figure for SCFCC is 3.09 ± 0.061.
Turning to SCFKDDCVGLLYYQSWSNDS, the amyloid nucleation score is 0.501 ± 0.33.
The figure for SCIYMSC is 1.73 ± 0.073; for SCIYTMAIRNNKVRCYFRAG it is “inactive”.
The value for SCLHHFMEDSEPMNMGRVVK was “inactive”; that for SCLHSSSFCKR was “inactive”; that for SCLHYVTVY was “inactive”.
The value for SCRCR was “inactive”.
As for SCSFRVYYFRLYFMLRSGSV, the amyloid nucleation score was -0.743 ± 0.82.
The value for SCSWVREWYRRLHRWGCGQW was 0.656 ± 0.28; that for SCTELFTPKGR was “inactive”; that for SCTLYAHALCPEQISPQFLH was “inactive”.
The value for SCVLTFGFLILLRVPSYSRI was “inactive”; that for SCVVFGSQTLRVVFFDRVSS was 0.184 ± 0.32; that for SCYNYCRCVCPNVEASHTSL was -0.664 ± 1.1.
The entry for SCYTMAFPVLWVHAQYCMNK is “inactive”.
With SDCYCNSQAVAWLFDRVFVF, the amyloid nucleation score result was “inactive”.
The entry for SDEGRAIPSATPFWEYCLMW is “inactive”; for SDGSNKVLESRCDSLHNVIV it is “inactive”.
The value for SDIGVCSLKICSTIILVANM was “inactive”; that for SDIHMMRCGVWLKNLMFMRK was “inactive”; that for SDLASASFCGH was 0.676 ± 0.2.
Turning to SDLFVSVFM, the amyloid nucleation score entry was “inactive”.
The entry for SDLYDVVEPVAMVTCDSKEK is “inactive”; for SDQFLIMEDSCSTPGRRSFK it is 0.408 ± 0.29; for SDSDMNKNMHMDSTHGRAMD it is “inactive”.
The value for SDWRRISVLIMFTEARSFLV was “inactive”.
The entry for SDYLFSQRGFVGSASCVLVM is “inactive”; for SDYTYFYM it is “inactive”; for SEAIFMVVGVRYEMELRWM it is -0.55 ± 1.4.
Take SEASYIIIFSGFSGFMPKLG: the amyloid nucleation score result was “inactive”.
The figure for SEDLRETWGSSA is -0.377 ± 0.98; for SEISWQVLCKNEDEYCHFWE it is “inactive”; for SELLPNYTKGVLTGDIYSRY it is “inactive”.
For SELTEVTSITDWF, the amyloid nucleation score result was “inactive”.
The value for SENGECKATVLCMLSSPVVC was “inactive”; that for SENMTGFLNRTSIISPWTYC was “inactive”.
In the case of SESMDGNFQKCLSAVCALIE, the amyloid nucleation score entry was “inactive”.
The entry for SFFDYAHRASSVFLGIFPEP is “inactive”.
As to SFFIALVNIFRCLN, the amyloid nucleation score turned out to be 2.56 ± 0.059.
The entry for SFFKNGGELVMSCVSVSPDI is “inactive”; for SFFTYRPQMMRCLSAIYTRM it is “inactive”; for SFGLWTGFGVMYVRIVDVTH it is “inactive”.
The entry for SFGSFMSHDEFSNVHSVGFP is “inactive”.
The value for SFHTDTPLMRHYIMRFYNDY was “inactive”; that for SFKAWIWSSMIAVGLTQRYS was “inactive”.
Take SFKDCSVDSWFGSIIG: the amyloid nucleation score entry is “inactive”.
The entry for SFKMSVVAGVRTLGIFVWVF is “inactive”; for SFKNNL it is “inactive”; for SFKTF it is “inactive”.
The value for SFLRYNKSY was “inactive”; that for SFLWGFCRTKETGGSFMFNR was 0.264 ± 0.62.
For the substance SFMLVFNDSAWLTSAHVYWA, the amyloid nucleation score entry was “inactive”.
As to SFPINGYMFSGYLERWCFTS, the amyloid nucleation score result was “inactive”.
With SFSDYEDMAQHLAPEAYNKC, the amyloid nucleation score entry is “inactive”.
Regarding SFSFVDLGIHYLMCNDSKIT, the amyloid nucleation score entry is “inactive”.
The value for SFSFVQGSVPSTSFGSLKLA was “inactive”; that for SFSFVVPQARYFPTC was “inactive”.
On to SFSKNVVDL, for which the amyloid nucleation score result is “inactive”.
Consider SFSLKPTDYIFIIVRSRRNP, for which the amyloid nucleation score entry is “inactive”.
Consider SFYGHVHMDTCCN, for which the amyloid nucleation score entry was “inactive”.
Turning to SFYNCTEVETHGRRICIFLY, the amyloid nucleation score entry was “inactive”.
The entry for SGAEDFQV is “inactive”; for SGALAKDVSVGVCVRPARLY it is 0.653 ± 0.19.
The value for SGATLLC was “inactive”; that for SGATVLSLSMY was “inactive”.
SGFILSCMLNPGTFTNDLMG: the amyloid nucleation score entry was “inactive”.
The entry for SGFYRENARILTV is “inactive”; for SGGNLWGFVDTLFIGMRIRY it is “inactive”; for SGISFTCMRHEMVSLTGGL it is “inactive”.
As for SGKHPSYNREPKGSVSVLGA, the amyloid nucleation score entry was “inactive”.
SGLDMRYHWNFVICQATRSY: the amyloid nucleation score entry is “inactive”.
Take SGLKMCYLSTGEKSAHAGEV: the amyloid nucleation score result is “inactive”.
The entry for SGLSDPPPLLE is “inactive”; for SGMLDWDWVSRVSIGVCKVW it is “inactive”; for SGRRCKAICA it is “inactive”.
The entry for SGRVSTDEKLVKFLRN is “inactive”; for SGSLPMRTMLFP it is “inactive”.
The value for SGTGNGKIPMDRSVSDCVRE was 0.035 ± 0.37; that for SGVSWTRPIWYLNWFTQSLW was “inactive”; that for SGVYHRICSISLYQVSMR was “inactive”.
In the case of SGVYLNVIWNCDIGDING, the amyloid nucleation score amounted to 1.49 ± 0.12.
The value for SGVYLTNNVWGFLYRATISG was “inactive”; that for SGWTTQVRNKDGWASQLVSE was “inactive”.
The value for SGYRIRVIHNMWAVGVKKRN was -0.487 ± 0.78; that for SHHSL was “inactive”; that for SHLDGYICYCPLLKRWIDYR was -0.035 ± 0.59.
The value for SHNLSWDIGHLGIV was “inactive”; that for SHSNKSMRVNALSKWLY was “inactive”; that for SHYFK was “inactive”.
On to SIAIHWTLICGLYLSNSSRA, for which the amyloid nucleation score entry was “inactive”.
The figure for SICTLFACHAFAGRYTTQGG is 1.04 ± 0.2.
The entry for SIDGMWTMYRRSVKYGDQFH is “inactive”; for SIDIVVVWTGAIQDFRVLCL it is -0.594 ± 1.1.
The value for SIEMQYNDMRLR was “inactive”.
With SIFIFYRYVFWRFMCDAVFS, the amyloid nucleation score entry was “inactive”.
The figure for SIFIMHGRMKF is 1.47 ± 0.072; for SIFLDEIDFKIT it is 0.409 ± 0.16.
The value for SIGVTCAPNNLHGCLILYRF was “inactive”.
The entry for SIGWSMFDNSMVREIRTRTC is “inactive”; for SIIGGWCGNE it is “inactive”.
In turn, SIIRNKFVAMNMNSVNM yielded an amyloid nucleation score of 0.831 ± 0.095.
Substance SINDLGLWNVTVKFLCK returned an amyloid nucleation score of -0.037 ± 0.63.
As for SIPRRNRDGLAWNARHNLQY, the amyloid nucleation score result is “inactive”.
The value for SIRISLEISGYSELSITFSC was “inactive”.
The entry for SISAKVGSSGRLGRSPYRVD is “inactive”.
The value for SISQTIVCTRPRVSAMIWFC was “inactive”; that for SISWRYATTSDVSLWIFVQT was “inactive”.
With SITDESASPPSRWKLGRFR, the amyloid nucleation score result is “inactive”.
The entry for SITRELGNETLYSLLGPRAF is “inactive”.
Consider SIVHGMA, for which the amyloid nucleation score entry was “inactive”.
The value for SIVSRLF was “inactive”.
The value for SIWKISTRMQTFFCRNM was 1.46 ± 0.1; that for SKACAVLAYNLVGFEFHFEF was 1.69 ± 0.074; that for SKALVSLWFLISMMNPYFIR was “inactive”.
Regarding SKARQEL, the amyloid nucleation score result is “inactive”.
The value for SKDGSSSTRQVTIVGRVLVF was “inactive”; that for SKFRFGRVNLNVT was “inactive”.
The figure for SKHIIFSFIGDLI is 0.654 ± 0.11; for SKPLYNSWIPMCLLFKVPPF it is “inactive”.
The value for SKPSYFHNFLFDKMSDRLCT was “inactive”.
For SKPYYYMVYIESEVVVYLFG, the amyloid nucleation score entry is “inactive”.
SKRFAIAEQVCNSF: the amyloid nucleation score entry was “inactive”.
The entry for SKRFSLGI is “inactive”; for SKSHLTIVSSYDHFHYMVRV it is “inactive”; for SKSLMMDLCTYCHYLNVYRE it is “inactive”.

The record behind these values is the supplement of paper PMC12042874.
